From patent US20250066499A1 (SUNSHINE GUOJIAN PHARMACEUTICAL SHANGHAI, published 2025)

Experiments:
CD73-CD-his = biological target: T1, CD73-CD-his (human, UniProt P21589 337-549); assay: ELISA as in Example 3, antigen CD73-CD-his, antibody titrated, absorbance 450 nm
T1 construct: it fits residue S549 of P21589 (27+522)
T1 sequence: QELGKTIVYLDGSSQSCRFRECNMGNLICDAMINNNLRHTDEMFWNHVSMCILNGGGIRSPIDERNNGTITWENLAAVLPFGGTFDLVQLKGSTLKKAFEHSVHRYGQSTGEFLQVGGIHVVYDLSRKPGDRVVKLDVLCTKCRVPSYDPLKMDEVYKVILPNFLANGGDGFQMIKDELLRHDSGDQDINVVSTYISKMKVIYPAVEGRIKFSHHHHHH

CD73-ND-Y132A = biological target: T2, CD73-ND-Y132A (human, UniProt P21589 27-317); assay: ELISA; decline multiple of Top against CD73-ND
T2 construct: Alanine mutant of CD73-ND
T2 sequence: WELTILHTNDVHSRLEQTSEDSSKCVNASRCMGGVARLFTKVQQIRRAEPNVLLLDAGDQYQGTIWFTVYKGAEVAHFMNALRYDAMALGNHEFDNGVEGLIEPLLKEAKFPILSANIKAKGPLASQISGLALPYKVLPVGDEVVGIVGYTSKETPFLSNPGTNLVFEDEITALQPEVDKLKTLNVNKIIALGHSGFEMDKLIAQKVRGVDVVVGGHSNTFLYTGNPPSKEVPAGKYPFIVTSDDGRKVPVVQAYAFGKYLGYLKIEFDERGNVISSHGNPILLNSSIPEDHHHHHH
Method: (§1) The ELISA plates were coated with SA protein diluted to 1.5 μg/mL in coating buffer (50 mM carbonate coating buffer, pH 9.6) and incubated overnight at 4° C. The supernatant was discarded, and the plates were washed three times with PBST. Then, 5% skimmed milk powder prepared with PBS was added for blocking and the plates were incubated for 2 h at 37° C. After washing the plates once with PBST, CD73-biotin protein (prepared by biotinylating CD73-His protein according to the EZ-Link NHS-Biotin Reagent instructions) was diluted to 0.5 μg/mL and added at 100 μL/well for incubation at room temperature for 1 h. The plates were washed three times with PBST, and the prepared murine-derived monoclonal antibodies against human CD73 were serially diluted with 1% BSA buffer prepared with PBST and added to the ELISA plates at 100 μl/well. The plates were incubated at 37° C. for 1 h. After washing the plates three times with PBST, HRP-labeled goat anti-mouse IgG secondary antibody was added and the plates were incubated for 30 min at 37° C. After washing the plates three times with PBST, the residual droplets were patted dry on absorbent paper as much as possible. Then, 100 μl of TMB color developing solution was added to each well, and the plates were incubated in the dark at room temperature for 5 min for color development. Subsequently, 50 μl of 2M H₂SO₄ stop solution was added to each well to terminate the substrate reaction. The OD values were read at 450 nm using a multimode microplate reader to analyze the binding ability of the tested antibodies to the target antigen human CD73-His.
(§2) Referring to the experimental method in Example 3, the affinity of 48A11-HuV33 for various mutant proteins of CD73-ND was determined. The SA protein was diluted to 1 μg/mL for coating the ELISA plates, and the biotinylated CD73 protein (CD73-biotin) was used at a concentration of 0.1 μg/mL.

CD73-ND-V137A = biological target: T3, CD73-ND-V137A (human, UniProt P21589 27-317); assay: ELISA; decline multiple of Top against CD73-ND
T3 construct: Alanine mutant of CD73-ND
T3 sequence: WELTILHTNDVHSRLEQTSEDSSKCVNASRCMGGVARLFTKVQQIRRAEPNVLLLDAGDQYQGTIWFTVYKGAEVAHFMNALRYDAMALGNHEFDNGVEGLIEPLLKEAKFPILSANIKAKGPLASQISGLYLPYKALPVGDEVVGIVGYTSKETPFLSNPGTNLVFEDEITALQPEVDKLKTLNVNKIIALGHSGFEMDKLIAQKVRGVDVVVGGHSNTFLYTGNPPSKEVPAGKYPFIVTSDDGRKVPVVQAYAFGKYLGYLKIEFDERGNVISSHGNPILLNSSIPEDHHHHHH
Method: as §1, §2

CD73-ND-P134A = biological target: T4, CD73-ND-P134A (human, UniProt P21589 27-317); assay: ELISA; decline multiple of Top against CD73-ND
T4 construct: Alanine mutant of CD73-ND
T4 sequence: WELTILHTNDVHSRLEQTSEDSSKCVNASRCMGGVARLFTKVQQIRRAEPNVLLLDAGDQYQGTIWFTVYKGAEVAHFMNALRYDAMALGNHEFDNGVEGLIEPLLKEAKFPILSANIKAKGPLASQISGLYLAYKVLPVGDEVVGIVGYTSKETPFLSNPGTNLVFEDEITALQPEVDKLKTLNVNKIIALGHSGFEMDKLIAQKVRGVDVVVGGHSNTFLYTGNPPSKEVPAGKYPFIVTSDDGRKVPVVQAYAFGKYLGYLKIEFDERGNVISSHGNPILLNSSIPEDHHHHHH
Method: as §1, §2

CD73-ND-K136A = biological target: T5, CD73-ND-K136A (human, UniProt P21589 27-317); assay: ELISA; decline multiple of Top against CD73-ND
T5 construct: Alanine mutant of CD73-ND
T5 sequence: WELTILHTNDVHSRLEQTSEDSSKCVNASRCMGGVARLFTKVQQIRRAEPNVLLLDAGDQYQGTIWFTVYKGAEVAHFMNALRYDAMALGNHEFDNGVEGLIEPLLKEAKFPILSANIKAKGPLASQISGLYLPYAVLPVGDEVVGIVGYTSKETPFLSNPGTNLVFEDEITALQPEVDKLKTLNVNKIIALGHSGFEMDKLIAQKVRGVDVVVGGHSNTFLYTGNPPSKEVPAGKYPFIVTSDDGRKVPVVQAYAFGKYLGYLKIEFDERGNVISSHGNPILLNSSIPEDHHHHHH
Method: as §1, §2

CD73-ND-his = biological target: T6, CD73-ND-his (human, UniProt P21589 27-317); assay: ELISA; decline multiple of Top against CD73-ND
T6 construct: Biotinylated and captured on streptavidin in the ELISA
T6 sequence: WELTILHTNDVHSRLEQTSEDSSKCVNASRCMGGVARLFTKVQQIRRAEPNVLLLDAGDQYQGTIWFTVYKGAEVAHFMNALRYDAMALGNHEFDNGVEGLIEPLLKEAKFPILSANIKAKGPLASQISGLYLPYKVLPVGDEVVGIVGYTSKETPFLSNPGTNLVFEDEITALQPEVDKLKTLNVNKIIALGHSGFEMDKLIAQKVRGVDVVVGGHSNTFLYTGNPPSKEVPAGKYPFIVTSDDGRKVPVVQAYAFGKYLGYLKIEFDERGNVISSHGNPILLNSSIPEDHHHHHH
Method: as §1, §2

B1: 48A11-HuV33 (antibody, human IgG4, V domains shown)
VH: QVQLVQSGAEVKKPGASVKVSCKASGYTFTSYWMHWVRQAPGQGLEWIGEINPSIGRTNYNEKFKSRVTLTRDTSTSTAYMELSSLRSEDTAVYYCARRVYGTMDYWGQGTLVTVSS
VL: DIQMTQSPSSLSASVGDRVTITCKASQDINSYLSWFQQKPGKSPKLLIYRANIWVDGVPSRFSGSGSGQDYTFTISSLQPEDIATYYCLQYDELYTFGQGTKVEIK
notes: Humanized
CD73-CD-his
  binding result: no binding (tested: 10 nM)
CD73-ND-Y132A
  Ratio(Top): 8.2 fold
CD73-ND-V137A
  Ratio(Top): 1.3 fold
CD73-ND-P134A
  Ratio(Top): 1.1 fold
CD73-ND-K136A
  Ratio(Top): 1 fold
CD73-ND-his
  Ratio(Top): 1 fold
